The supplement of paper PMC7877785
± gives the uncertainty stated by the source.

Test: self-splicing fitness, log relative to wild type (ln ratio); higher = more splicing; Tetrahymena group I intron in knt gene, E. coli kanamycin selection, DiMSum; sequences stand for … in CUCUCU…GGAGGGAAAAGUUAUCAGGCAUGCACCUGGUAGCUAGUCUUUAAACCAAUAGAUUGCAUCGGUUUAAAAGGCAAGACCGUCAAAUUGCGGGAAAGGGGUCAACAGCCGUUCAGUACCAAGUCUCAGGGGAAACUUUGAGAUGGCCUUGCAAAGGGUAUGGUAAUAAGCUGACGGACAUGGUCCUAACCACGCAGCCAAGUCCUAAGUCAACAGAUCUUCUGUUGAUAUGGAUGCAGUUCACAGACUAAAUGUCGGUCGGGGAAGAUGUAUUCUUCUCAUAAGAUAUAGUCGGACCUCUCCUUAAUGGGAGCUAGCGGAUGAAGUGAUGCAACACUGGAGCCGCUGGGAACUAAUUUGUAUGCGAAAGUAUAUUGAUUAGUUUUGGAGUACUCGUGGUCG
How it was run: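 Library with all eight P1ex-region intron nucleotides randomised, intron inside the knt kanamycin-resistance gene on pET-22b(+), in E. coli BL21(DE3). Cells grew overnight at 37°C or 30°C on LB agar with or without 25 μg/mL kanamycin (plus 100 μg/mL carbenicillin, 50 μM IPTG, 0.2% rhamnose), in six replicate transformations. Pooled colonies were amplicon-sequenced on Illumina HiSeq 2500. DiMSum fitness is the error-weighted combination of wild-type-normalised replicate fold changes, kanamycin versus none.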

Sequence | self-splicing fitness (ln) (30 °C) | self-splicing fitness (ln) (37 °C)
AGCGAGCAAUAUUACGAUUC | -1.93 ± 0.16 | -2.02 ± 0.27
CUUUAGCAAUAUUACGGGAC | -3.25 ± 0.36 | -2.36 ± 0.42
CUUGAGCAAUAUUACGGACG | -0.339 ± 0.15 | 0.256 ± 0.26
UAUAAGCAAUAUUACGUAUA | -2.77 ± 0.21 | -0.986 ± 0.17
GAGUAGCAAUAUUACGAACA | – | -1.28 ± 0.34
UGGCAGCAAUAUUACGGUGC | -3.3 ± 0.23 | -2.79 ± 0.32
UGCCAGCAAUAUUACGUCCA | -0.0851 ± 0.076 | 0.335 ± 0.09
AACUAGCAAUAUUACGGAAU | -2.42 ± 0.1 | -1.83 ± 0.14
CGAGAGCAAUAUUACGAAUC | -2.29 ± 0.27 | –
UUCUAGCAAUAUUACGCAAA | -0.225 ± 0.3 | -1.23 ± 0.27
CGAUAGCAAUAUUACGUGGA | -1.9 ± 0.24 | -2.62 ± 0.31
UCCAAGCAAUAUUACGAGUC | -3.66 ± 0.19 | -2.97 ± 0.24
AGAAAGCAAUAUUACGGCCU | 0.484 ± 0.11 | 0.212 ± 0.12
ACUGAGCAAUAUUACGUGGC | -3.3 ± 0.22 | -1.79 ± 0.25
CGAAAGCAAUAUUACGACUG | -0.103 ± 0.064 | -0.811 ± 0.078
AUGCAGCAAUAUUACGGCUA | 0.452 ± 0.11 | 0.366 ± 0.12
GAGCAGCAAUAUUACGCAAA | -1.4 ± 0.2 | -0.683 ± 0.14
UGUAAGCAAUAUUACGCAAA | -2.11 ± 0.16 | -0.927 ± 0.13
CACCAGCAAUAUUACGAUGA | -1.9 ± 0.091 | -2 ± 0.099
AGGAAGCAAUAUUACGGGGU | -3.19 ± 0.21 | -3.13 ± 0.43
UGUAAGCAAUAUUACGCGGU | -3.22 ± 0.21 | -2.15 ± 0.29
GCCUAGCAAUAUUACGCCCA | -2.69 ± 0.25 | -0.792 ± 0.2
GCGAAGCAAUAUUACGAUCU | -1.09 ± 0.066 | -0.73 ± 0.079
GCCCAGCAAUAUUACGGACG | -0.702 ± 0.07 | -0.133 ± 0.097
UACGAGCAAUAUUACGCUUG | -2.75 ± 0.32 | –
UGUCAGCAAUAUUACGCAAC | -2.59 ± 0.33 | -1.26 ± 0.28

Sequence | self-splicing fitness (ln) (30 °C) | self-splicing fitness (ln) (37 °C)
UCCAAGCAAUAUUACGAUCA | -1.1 ± 0.14 | -0.861 ± 0.15
GUUCAGCAAUAUUACGUUCU | -0.734 ± 0.073 | -0.74 ± 0.087
CCACAGCAAUAUUACGUUCU | -2.77 ± 0.1 | -3.7 ± 0.19
AGGCAGCAAUAUUACGAAUU | -1.29 ± 0.064 | -1.4 ± 0.093
GCCAAGCAAUAUUACGAUCG | -2.24 ± 0.22 | -2.42 ± 0.22
AUGUAGCAAUAUUACGCCGU | -1.43 ± 0.14 | -0.29 ± 0.14
GUAUAGCAAUAUUACGUGUC | -4.58 ± 0.39 | -1.42 ± 0.14
UAGUAGCAAUAUUACGGAUU | -4.06 ± 0.47 | -0.834 ± 0.18
CUUCAGCAAUAUUACGCCUC | – | -3.49 ± 0.32
CAGUAGCAAUAUUACGAUUC | -3.11 ± 0.22 | -2.27 ± 0.26
UGGGAGCAAUAUUACGCGGU | -3.43 ± 0.24 | -3.8 ± 0.33
GGCAAGCAAUAUUACGCCAG | – | -2.52 ± 0.41
UCUCAGCAAUAUUACGUGUU | -3.47 ± 0.14 | -2.73 ± 0.15
CAAAAGCAAUAUUACGCUCA | -1.64 ± 0.11 | -0.465 ± 0.13
GGCAAGCAAUAUUACGCGUU | -0.907 ± 0.075 | -0.815 ± 0.1
GCAAAGCAAUAUUACGCUAG | -2.78 ± 0.088 | -2.51 ± 0.084
AUCUAGCAAUAUUACGGUAU | -1.54 ± 0.1 | -1.19 ± 0.13
AAGGAGCAAUAUUACGUCAC | – | -1.45 ± 0.46
CAUAAGCAAUAUUACGCGGC | -3.43 ± 0.28 | -2.53 ± 0.23
AAGGAGCAAUAUUACGGCGG | -4.57 ± 0.3 | -2.12 ± 0.32
CACGAGCAAUAUUACGGCUU | -3.77 ± 0.24 | -3.16 ± 0.29
CUUUAGCAAUAUUACGAAUU | – | -3.6 ± 0.46
AGGUAGCAAUAUUACGGGAA | -2.69 ± 0.027 | -2.11 ± 0.038
CUUGAGCAAUAUUACGCUUC | -2.91 ± 0.28 | -1.96 ± 0.45
ACGGAGCAAUAUUACGAAGG | -3.68 ± 0.21 | -2.7 ± 0.27
CGAAAGCAAUAUUACGUUGU | -3.63 ± 0.15 | -2.7 ± 0.15

Sequence | self-splicing fitness (ln) (30 °C) | self-splicing fitness (ln) (37 °C)
UCGCAGCAAUAUUACGCGAU | -2.55 ± 0.18 | -2.97 ± 0.25
CGUAAGCAAUAUUACGCUUC | – | -2.52 ± 0.45
UUGAAGCAAUAUUACGACAC | -1.07 ± 0.13 | -0.278 ± 0.2
AGGUAGCAAUAUUACGAAAA | -2.61 ± 0.031 | -2.01 ± 0.041
CGACAGCAAUAUUACGGUGC | -3.61 ± 0.26 | -2.53 ± 0.16
CGAGAGCAAUAUUACGCCUA | -2.4 ± 0.36 | -0.235 ± 0.38
UUGAAGCAAUAUUACGUCGA | 0.473 ± 0.084 | 0.333 ± 0.093
ACAUAGCAAUAUUACGCCUU | -1.25 ± 0.083 | -0.057 ± 0.085
GUACAGCAAUAUUACGCCGA | – | -1.96 ± 0.41
CCCAAGCAAUAUUACGGUCG | -2.3 ± 0.094 | -0.827 ± 0.094
GAUGAGCAAUAUUACGCGUG | -0.71 ± 0.14 | -1.14 ± 0.16
GUCUAGCAAUAUUACGGUAU | -0.441 ± 0.1 | 0.315 ± 0.11
UGAUAGCAAUAUUACGGGUC | -4.2 ± 0.34 | -2.63 ± 0.37
UCUUAGCAAUAUUACGGACC | – | -1.91 ± 0.28
CCCUAGCAAUAUUACGGCUG | -2.46 ± 0.28 | -1.38 ± 0.3
UCCUAGCAAUAUUACGGUAU | -3.23 ± 0.16 | -1.76 ± 0.18
CGCAAGCAAUAUUACGUAGU | -3.1 ± 0.097 | -2.75 ± 0.098
GCUCAGCAAUAUUACGUCGC | -1.95 ± 0.17 | -0.137 ± 0.16
AAACAGCAAUAUUACGCGUG | -1.42 ± 0.052 | -0.0443 ± 0.066
CAUCAGCAAUAUUACGCAGU | -2.02 ± 0.089 | -1.78 ± 0.097
GGGCAGCAAUAUUACGUGGG | -3.1 ± 0.12 | -2.62 ± 0.13
UGAGAGCAAUAUUACGUACU | – | -1.87 ± 0.25
GGGCAGCAAUAUUACGUACU | -0.53 ± 0.098 | -0.834 ± 0.11
AAAAAGCAAUAUUACGACCG | -0.107 ± 0.13 | -0.00629 ± 0.17
CCGAAGCAAUAUUACGCAAG | -1.83 ± 0.17 | -1.12 ± 0.17
AUGGAGCAAUAUUACGCGUG | -3.24 ± 0.16 | -1.15 ± 0.14
